In US20180194862A1 (AbbVie / Abbott, published 2018):
Numbering of substitutions follows the chain as printed. Blank lines part the entries; values can stand above or below the binder they belong to.

Tests used:
mouse CD40 = biological target: T1, mouse CD40 (mouse, UniProt P27512 20-193, limits assumed); assay: FACS
T1 construct: also called murine CD40
T1 sequence (looked up): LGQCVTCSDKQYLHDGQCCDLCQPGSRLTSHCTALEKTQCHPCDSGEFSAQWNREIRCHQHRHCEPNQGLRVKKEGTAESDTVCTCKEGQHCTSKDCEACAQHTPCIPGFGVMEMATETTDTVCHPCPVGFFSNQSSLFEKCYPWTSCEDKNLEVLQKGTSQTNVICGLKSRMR

dog CD40 = biological target: T2, dog CD40 (dog, UniProt Q7YRL5 21-194, limits assumed); assay: FACS
T2 sequence (looked up): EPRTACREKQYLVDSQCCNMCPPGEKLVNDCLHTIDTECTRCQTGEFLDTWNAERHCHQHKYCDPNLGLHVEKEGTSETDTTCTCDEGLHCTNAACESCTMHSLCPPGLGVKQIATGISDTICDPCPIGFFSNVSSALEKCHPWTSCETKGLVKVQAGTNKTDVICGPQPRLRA

[1] = biological target: T3, human CD40 on cells (HEK293 stable transfectants, HEK-Blue CD40 cells, human B cells, monocytic cells, … (human, UniProt P25942 21-277)); assay: cell-based or functional assay
[2] = biological target: T4, mesothelin on cells (endogenous on SN12C, OVCAR3, SW1990); HEK293 cells expressing cell-surface human … (human, UniProt Q13421 296-598); assay: FACS, OVCAR3 (CA125+)
T4 construct: whole, on cells; also called cell-surface MSLN
Description: (§1) The binding of anti-mesothelin affinity matured variants was measured by FACS on the ovarian cancer cell line OVCAR3, the pancreatic cancer cell line SW1990, and the renal cancer cell line SN12C. Both OVCAR3 and SW1990 express CA125, but CA125 expression on SN12C cells was not detected.

[3] = biological target: T4, mesothelin on cells (endogenous on …); assay: FACS, SN12C (CA125-)
Description: as §1

human mesothelin = biological target: T5, human mesothelin (human, UniProt Q13421 296-580, limits assumed); assay: SPR
T5 construct: also called Human MSLN

cynomolgus mesothelin = biological target: T6, cynomolgus mesothelin (cynomolgus); assay: SPR
T6 construct: also called cynoMSLN; Cyno MSLN

[4] = biological target: T3, human CD40 on cells (HEK293 stable …); assay: cell-based or functional assay; remark: listed apart in the source
[5] = biological target: T7, soluble form of the extracellular domain of human CD40 (Creative BioMart) (human, UniProt P25942 21-193); assay: SPR, Ab captured
T7 construct: Bought
Description: CD40 binding kinetics was analyzed by surface plasmon resonance assay with a Biacore T200 instrument (Table 1-5). Briefly, a goat anti-mouse Fc antibody (Pierce) or goat anti-human Fc (Pierce) was immobilized on a CM5 sensor chip, followed by capture of the anti-CD40 antibodies on the test surface. Subsequently, the soluble form of the extracellular domain of human CD40 (Creative BioMart) or cynomolgus (cyno) CD40 (Creative BioMart) was injected, and the binding and dissociation were measured.

T7 sequence (P25942 21-193 limits assumed): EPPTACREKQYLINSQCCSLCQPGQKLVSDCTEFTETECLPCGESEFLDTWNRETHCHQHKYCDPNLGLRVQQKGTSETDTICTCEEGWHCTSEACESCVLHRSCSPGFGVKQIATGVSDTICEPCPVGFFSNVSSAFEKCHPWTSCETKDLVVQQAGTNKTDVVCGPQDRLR
T5 sequence (Q13421 other isoform, or with tags, fused parts or gaps limits assumed): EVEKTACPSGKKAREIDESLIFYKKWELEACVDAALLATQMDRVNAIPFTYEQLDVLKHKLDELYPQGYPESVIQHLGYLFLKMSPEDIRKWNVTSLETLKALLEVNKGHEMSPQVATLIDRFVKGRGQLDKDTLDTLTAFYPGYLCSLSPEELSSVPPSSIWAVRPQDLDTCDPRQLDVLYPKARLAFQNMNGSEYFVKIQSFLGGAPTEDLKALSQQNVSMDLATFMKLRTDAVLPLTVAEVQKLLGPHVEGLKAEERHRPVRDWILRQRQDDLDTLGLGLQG
T4 sequence (Q13421 other isoform, or with tags, fused parts or gaps limits assumed): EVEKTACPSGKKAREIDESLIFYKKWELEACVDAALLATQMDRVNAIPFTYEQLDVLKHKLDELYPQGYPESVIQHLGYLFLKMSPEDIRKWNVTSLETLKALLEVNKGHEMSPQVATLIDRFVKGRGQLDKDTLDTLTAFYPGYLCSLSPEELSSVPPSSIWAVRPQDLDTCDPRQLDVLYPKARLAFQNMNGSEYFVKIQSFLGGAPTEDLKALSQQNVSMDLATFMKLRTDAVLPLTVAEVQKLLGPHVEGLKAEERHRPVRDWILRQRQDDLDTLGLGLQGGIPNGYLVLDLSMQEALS
T3 sequence (P25942 21-277 limits assumed): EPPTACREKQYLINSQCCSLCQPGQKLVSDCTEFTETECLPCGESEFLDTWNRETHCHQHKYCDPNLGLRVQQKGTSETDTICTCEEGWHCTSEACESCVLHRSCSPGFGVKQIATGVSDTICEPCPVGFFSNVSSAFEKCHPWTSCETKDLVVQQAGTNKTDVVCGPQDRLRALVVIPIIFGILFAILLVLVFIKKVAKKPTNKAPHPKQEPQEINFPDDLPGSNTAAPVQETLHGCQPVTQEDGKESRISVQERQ

- binding result (mouse CD40): no binding
- binding result (dog CD40): no binding
- Maximal activation (OD655) [1]: 0.27 OD655
- NF-κB activation EC50, HEK293 CD40 NFκB reporter cells [1]: 0.18 µg/mL
B2: huAb9-3 (antibody, human IgG1, V domains shown)
VH: EVQLQESGPGLVKPSETLSLTCTVSGYSISSNYYWNWIRQPPGKGLEWMGYIRYDGSNNYNPSLKSRVTISRDTSKNQFSLKLSSVTAADTAVYYCARLDYWGQGTTVTVSS
VL: DAVMTQTPLSLSVTPGQPASISCRSSQSLENTNGNTFLNWFLQKPGQSPQLLIYRVSNRFSGVPDRFSGSGSGTDFTLKISRVEAEDVGVYFCLQVTHVPFTFGQGTKLEIK
notes: human IgG1, kappa

- binding result (mouse CD40): no binding
- binding result (dog CD40): no binding
- Maximal activation (OD655) [1]: 0.26 OD655
- NF-κB activation EC50, HEK293 CD40 NFκB reporter cells [1]: 0.19 µg/mL
B3: huAb9-1 (antibody, human IgG1, V domains shown)
VH: B2 VH with S30T, S66N, V68I
VL: B2 VL
notes: human IgG1, kappa

- binding result (mouse CD40): no binding
- binding result (dog CD40): no binding
- Maximal activation (OD655) [1]: 0.61 OD655
- NF-κB activation EC50, HEK293 CD40 NFκB reporter cells [1]: 5.55 µg/mL
B4: huAb9-4 (antibody, human IgG1, V domains shown)
VH: B2 VH with S30T, S66N, V68I
VL: B2 VL with F41Y, F92Y
notes: human IgG1, kappa

- binding result (mouse CD40): no binding
- binding result (dog CD40): no binding
- Maximal activation (OD655) [1]: 0.32 OD655
- NF-κB activation EC50, HEK293 CD40 NFκB reporter cells [1]: 4.31 µg/mL
B6: huAb6-3 (antibody, human IgG1, V domains shown)
VH: EVQLVQSGAEVKKPGSSVKVSCKASGYTFTSYWMHWVRQAPGQGLEWIGNIDPSNGETHYAQKFQGRVTITVDKSTSTAYMELSSLRSEDTAVYYCARERIYYSGSTYDGYFDVWGQGTTVTVSS
VL: DIQLTQSPSFLSASVGDRVTITCSASSSLSYMHWYQQKPGKSPKRWIYDTSKLASGVPSRFSGSGSGTEYTLTISSLQPEDFATYYCQQWSSNPWTFGGGTKVEIK
notes: human IgG1, kappa

- binding result (mouse CD40): no binding
- binding result (dog CD40): no binding
- Maximal activation (OD655) [1]: 0.26 OD655
- NF-κB activation EC50, HEK293 CD40 NFκB reporter cells [1]: 1.09 µg/mL
B7: huAb6-1 (antibody, human IgG1, V domains shown)
VH: B6 VH with A61N, Q65K, G66D, V68A, I70L
VL: B6 VL
notes: human IgG1 heavy chain constant region, kappa light chain constant region

- EC50 [2]: 0.7 µg/mL
- Maximum binding (MFI) [2]: 3670 MFI
- EC50 [3]: 0.09 µg/mL
- Maximum binding (MFI) [3]: 9870 MFI
B9: HuAM13 (antibody, V domains shown)
VH: EVQLVQSGAEVKKPGASVKVSCKASGDTFNRYYVQWVRQAPGQGLEWMGIINPSGVSTTYAQKFQGRVTMTRDTSTSTVYMELSSLRSEDTAVYYCAETRGSGFNYFGMDVWGQGTLVTVSS
VL: SYELTQPPSVSVSPGQTASITCSGDKLGDKYASWYQQKPGQSPVLVIYQDNRRPSGIPERFSGSNSGNTATLTISGTQAMDEADYYCQVWDSDTYVFGTGTKVTVL
notes: fully human antibody

- EC50 [2]: 0.6 µg/mL
- Maximum binding (MFI) [2]: 3610 MFI
- EC50 [3]: 0.08 µg/mL
- Maximum binding (MFI) [3]: 9540 MFI
- Kd (human mesothelin): 0.46 nM
- koff (human mesothelin): 2.4e-05 s⁻¹
- kon (human mesothelin): 52000 M⁻¹ s⁻¹
- Kd (cynomolgus mesothelin): 4.1 nM
- koff (cynomolgus mesothelin): 0.00019 s⁻¹
- kon (cynomolgus mesothelin): 47000 M⁻¹ s⁻¹
B10: HuAM16 (antibody, V domains shown)
VH: B9 VH
VL: B9 VL with V89A
notes: fully human antibody

- EC50 [2]: 0.8 µg/mL
- Maximum binding (MFI) [2]: 3270 MFI
- EC50 [3]: 0.09 µg/mL
- Maximum binding (MFI) [3]: 9630 MFI
B12: HuAM12 (antibody, V domains shown)
VH: B9 VH with N30H, Q35H, T99V
VL: B9 VL with V89A
notes: fully human antibody

- EC50 [2]: 0.7 µg/mL
- Maximum binding (MFI) [2]: 3370 MFI
- EC50 [3]: 0.09 µg/mL
- Maximum binding (MFI) [3]: 9800 MFI
B14: HuAM14 (antibody, V domains shown)
VH: B9 VH with N30K, V34M, Q35H, T99V
VL: B9 VL with V89A
notes: fully human antibody

- binding result (mouse CD40): no binding
- binding result (dog CD40): no binding
- Maximal activation (OD655) [1]: 0.46 OD655
- NF-κB activation EC50, HEK293 CD40 NFκB reporter cells [1]: 0.07 µg/mL
B18: huAb8-3 (antibody, human IgG1, V domains shown)
VH: EVQLVQSGAEVKKPGSSVKVSCKASGYTFTDYYINWVRQAPGQGLEWIGWIFPGSGSVYCNEQFKGRVTITVDKSTSTAYMELSSLRSEDTAVYYCASSLGKFAYWGQGTLVTVSS
VL: DIQMTQSPSSLSASVGDRVTITCKASQSVVTAVAWYQQKPGKSPKLLIYSASNRYTGVPSRFSGSGSGTDFTLTISSLQPEDFATYFCQQYSSYPYTFGGGTKVEIK
notes: human IgG1, kappa

Second part, the binder before the results:

B1: huAb9-2 (antibody, human IgG1, V domains shown)
VH: B2 VH with S30T, S66N
VL: B2 VL
notes: human IgG1, kappa
- binding result (mouse CD40): no binding
- binding result (dog CD40): no binding
- Maximal activation (OD655) [1]: 0.27 OD655
- NF-κB activation EC50, HEK293 CD40 NFκB reporter cells [1]: 0.29 µg/mL

B5: huAb6-2 (antibody, human IgG1, V domains shown)
VH: B6 VH with A61N, Q65K, G66D
VL: B6 VL
notes: human IgG1, kappa
- binding result (mouse CD40): no binding
- binding result (dog CD40): no binding
- Maximal activation (OD655) [1]: 0.2 OD655
- NF-κB activation EC50, HEK293 CD40 NFκB reporter cells [1]: 1.21 µg/mL

B8: HuAb17 (antibody, V domains shown)
VH: EVQLVQSGAEVKEPGASVKVSCKASGDTFNRYYVHWARQAPGQGLEWMGIINPSGVSTTYAQKFQGRVTMTRDTPTNTVYMELGSLRPEDTAVYFCAESRGSGYNYFAMDVWGQGTLVTVSS
VL: B9 VL with S19D, V89A, T99P
notes: fully human antibody
- EC50 [2]: 2.9 µg/mL
- Maximum binding (MFI) [2]: 1640 MFI
- EC50 [3]: 2.74 µg/mL
- Maximum binding (MFI) [3]: 11000 MFI
- Kd (human mesothelin): 2.6 nM
- koff (human mesothelin): 3.2e-05 s⁻¹
- kon (human mesothelin): 12000 M⁻¹ s⁻¹
- Kd (cynomolgus mesothelin): 8.1 nM
- koff (cynomolgus mesothelin): 0.00013 s⁻¹
- kon (cynomolgus mesothelin): 15000 M⁻¹ s⁻¹

B11: HuAM5 (antibody, V domains shown)
VH: B9 VH with Q35H, T99V, F104Y, G108A
VL: B9 VL with V89A
notes: fully human antibody
- EC50 [2]: 0.7 µg/mL
- Maximum binding (MFI) [2]: 3690 MFI
- EC50 [3]: 0.09 µg/mL
- Maximum binding (MFI) [3]: 10000 MFI
- Kd (human mesothelin): ≤ 0.46 nM
- koff (human mesothelin): ≤ 1e-05 s⁻¹
- kon (human mesothelin): 23000 M⁻¹ s⁻¹
- Kd (cynomolgus mesothelin): 4.9 nM
- koff (cynomolgus mesothelin): 0.0001 s⁻¹
- kon (cynomolgus mesothelin): 20000 M⁻¹ s⁻¹

B13: HuAM11 (antibody, V domains shown)
VH: B9 VH with N30K, V34M, Q35H, T99V
VL: B9 VL
notes: fully human antibody
- EC50 [2]: 0.7 µg/mL
- Maximum binding (MFI) [2]: 3430 MFI
- EC50 [3]: 0.04 µg/mL
- Maximum binding (MFI) [3]: 7530 MFI

B15: AD163.9.3 (antibody, V domains shown)
VH: QVQLQQPGAELVKPGASVKMSCKASGYTFTSYWITWVKQRPGQGLEWIGEINPGSGSTNYNEKFKSKATLTVDTSSSTAYMQLSSLTSEDSAVYYCARNRGTGDYWGQGTTLTVSS
VL: DVVMTQTPLSLPVSLGDQASISCRSSQSLVHSYGNTYLHWYLQKPGQSPKFLIYKVSNRISGVPDRLSGSGSGTDFTLKISRVEPEDLGVYFCSQSTHVPYTFGGGTKLEIK
notes: mouse hybridoma antibody; also called muAb1
- Monocyte activation (THP1-Xblue, OD655) [4]: 0.19 OD655
- moDC activation (IL-12p70) [4]: 2220 pg/mL
- Kd [5]: 35 nM
- koff [5]: 0.016 s⁻¹
- kon [5]: 470000 M⁻¹ s⁻¹

B16: AD175.14.11 (antibody, V domains shown)
VH: EVQLQQSGPELVKPGASVKISCKASGYTFTDYYMNWVKQSHGKSLEWIGDINPNNGGTSYNQKFKGKATLTVDKSSSTAYMELRSLTSEDSAVYYCARRGGLGRGTYALDYWGQGTSVTVSS
VL: DIQMTQTTSSLSASLGDRVTISCRASQDISNYLNWYQQKPDGTVKPLIYYTSRLHLGVPSRFSGSGSGTDYSLTISNLEQEDIATYFCQQGNTLPLTFGAGTKLELK
notes: mouse hybridoma antibody; also called muAb3
- Monocyte activation (THP1-Xblue, OD655) [4]: 0.2 OD655
- moDC activation (IL-12p70) [4]: 0 pg/mL
- Kd [5]: 170 nM
- koff [5]: 0.012 s⁻¹
- kon [5]: 69000 M⁻¹ s⁻¹

B17: AD163.10.7 (antibody, V domains shown)
VH: LVQPGGSLSLSCAASGFTFSDYYMSWVRQPPGKALEWLGFIRNKANGYTTEFSASVKGRFTISRDNSQSILYLQMNALRAEDSATYYCARYGGLRQGWYFDVWGTGTTVTVSS
VL: B16 VL with S30R, P46L, L56S, N92K, L96W, A100G, T102S, L106M
notes: mouse hybridoma antibody; also called muAb4
- Monocyte activation (THP1-Xblue, OD655) [4]: 0.16 OD655
- moDC activation (IL-12p70) [4]: 1320 pg/mL
- Kd [5]: 76 nM
- koff [5]: 0.17 s⁻¹
- kon [5]: 2.3e+06 M⁻¹ s⁻¹
